According to the supplement of paper PMC9112550, “Optimization of the antimicrobial peptide Bac7 by deep mutational scanning” (BMC Biology, 2022):

Tested on: Escherichia coli TOP10
Experiment: shrunken log2 fold change of peptide-encoding DNA abundance (4.5 h post-induction vs induction); higher = less antimicrobial activity (less host growth inhibition)
Settings: time post-induction: 4.5 h; library: site-saturation at positions 5, 18, 19, 20
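Further: peptides expressed intracellularly from a pBAD plasmid library in pooled LB shake-flask culture, induced with 0.3% L-arabinose, DNA abundance read by NGS, three biological replicates, DESeq2 with apeglm shrinkage.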

Sequence | shrunken log2 fold change
RRIRPRPPRLPRPRPRPFMRPRP | -0.1
RRIRKRPPRLPRPRPRPTICPRP | -0.0104
RRIRWRPPRLPRPRPRPSGTPRP | 0.0142
RRIRDRPPRLPRPRPRPMWRPRP | 0.309
RRIRKRPPRLPRPRPRPLGIPRP | 4.29
RRIRFRPPRLPRPRPRPGTIPRP | -0.173
RRIRKRPPRLPRPRPRPTIAPRP | 0.541
RRIRARPPRLPRPRPRPGHAPRP | 0.16
RRIRMRPPRLPRPRPRPFTMPRP | -0.55
RRIRNRPPRLPRPRPRPACGPRP | 0.547
RRIRMRPPRLPRPRPRPIRSPRP | -0.0819
RRIRYRPPRLPRPRPRPKLMPRP | -0.115
RRIRPRPPRLPRPRPRPWVLPRP | -0.0962
RRIRYRPPRLPRPRPRPDAPPRP | -0.0708
RRIRARPPRLPRPRPRPYKEPRP | -0.423
RRIRDRPPRLPRPRPRPIKNPRP | -0.158
RRIRRRPPRLPRPRPRPRMQPRP | 0.372
RRIRVRPPRLPRPRPRPWLTPRP | -0.147
RRIRNRPPRLPRPRPRPQSMPRP | -0.567
RRIRERPPRLPRPRPRPVANPRP | -0.068
RRIRKRPPRLPRPRPRPMFNPRP | -0.0523
RRIRWRPPRLPRPRPRPLHIPRP | -0.465

Sequence | shrunken log2 fold change
RRIRIRPPRLPRPRPRPETMPRP | -0.108
RRIRPRPPRLPRPRPRPGKGPRP | 0.0267
RRIRHRPPRLPRPRPRPQYQPRP | -0.496
RRIRIRPPRLPRPRPRPQFRPRP | -0.234
RRIRSRPPRLPRPRPRPSISPRP | -0.584
RRIRVRPPRLPRPRPRPECAPRP | 0.376
RRIRLRPPRLPRPRPRPDMPPRP | -0.269
RRIRDRPPRLPRPRPRPPKVPRP | 0.387
RRIRQRPPRLPRPRPRPIDAPRP | 0.000655
RRIRFRPPRLPRPRPRPSSHPRP | -0.682
RRIRRRPPRLPRPRPRPWHMPRP | 0.0729
RRIRHRPPRLPRPRPRPTHPPRP | 0.155
RRIRDRPPRLPRPRPRPWRGPRP | 0.196
RRIRSRPPRLPRPRPRPQGEPRP | -0.0953
RRIRTRPPRLPRPRPRPSDTPRP | -0.212
RRIRCRPPRLPRPRPRPGIWPRP | 0.485
RRIRMRPPRLPRPRPRPMRWPRP | 0.539
RRIRVRPPRLPRPRPRPYFDPRP | -0.609
RRIRVRPPRLPRPRPRPAKFPRP | 0.42
RRIRNRPPRLPRPRPRPESGPRP | -0.0271
RRIRGRPPRLPRPRPRPRWTPRP | 0.43
RRIRGRPPRLPRPRPRPGKCPRP | -0.0229

Sequence | shrunken log2 fold change
RRIRYRPPRLPRPRPRPLLQPRP | -0.309
RRIRLRPPRLPRPRPRPLNWPRP | -0.0552
RRIRPRPPRLPRPRPRPRIKPRP | -0.138
RRIRYRPPRLPRPRPRPDANPRP | -0.114
RRIRKRPPRLPRPRPRPATDPRP | 0.00132
RRIRCRPPRLPRPRPRPDVSPRP | -0.185
RRIRERPPRLPRPRPRPFDNPRP | 3.45
RRIRHRPPRLPRPRPRPCQQPRP | -0.0541
RRIRVRPPRLPRPRPRPMCHPRP | -0.0674
RRIRLRPPRLPRPRPRPGCSPRP | 0.0547
RRIRYRPPRLPRPRPRPMHRPRP | -0.0541
RRIRFRPPRLPRPRPRPQYYPRP | -0.846
RRIRCRPPRLPRPRPRPTGGPRP | 0.561
RRIRNRPPRLPRPRPRPFAEPRP | -0.238
RRIRTRPPRLPRPRPRPLAGPRP | 0.0232
RRIRMRPPRLPRPRPRPHPTPRP | 0.805
RRIRMRPPRLPRPRPRPYGDPRP | 0.0122
RRIRQRPPRLPRPRPRPMHLPRP | -0.157
RRIRSRPPRLPRPRPRPTSQPRP | 0.0259
RRIRIRPPRLPRPRPRPRNEPRP | 0.227
RRIRTRPPRLPRPRPRPIASPRP | -0.0997
RRIRFRPPRLPRPRPRPQTTPRP | 0.00489

Sequence | shrunken log2 fold change
RRIRMRPPRLPRPRPRPMSYPRP | -0.175
RRIRRRPPRLPRPRPRPYHWPRP | -0.48
RRIRQRPPRLPRPRPRPYQYPRP | -0.016
RRIRYRPPRLPRPRPRPIANPRP | -0.0103
RRIRNRPPRLPRPRPRPPEVPRP | 0.0233
RRIRHRPPRLPRPRPRPFTEPRP | 0.00246
RRIRLRPPRLPRPRPRPTYWPRP | -0.256
RRIRPRPPRLPRPRPRPYEYPRP | -0.314
RRIRWRPPRLPRPRPRPVQKPRP | 0.0836
RRIRHRPPRLPRPRPRPRKSPRP | 0.119
RRIRPRPPRLPRPRPRPAASPRP | -0.0885
RRIRDRPPRLPRPRPRPTDPPRP | 0.0862
RRIRLRPPRLPRPRPRPYLCPRP | -0.0953
RRIRLRPPRLPRPRPRPTPSPRP | 0.552
RRIRSRPPRLPRPRPRPPIKPRP | -0.221
RRIRHRPPRLPRPRPRPPMEPRP | -0.0615
RRIRMRPPRLPRPRPRPRLPPRP | 0.805
RRIRCRPPRLPRPRPRPGTHPRP | -0.243
RRIRIRPPRLPRPRPRPWMDPRP | 0.0312
RRIRCRPPRLPRPRPRPVKTPRP | -0.132
RRIRKRPPRLPRPRPRPQCSPRP | 0.136
RRIRQRPPRLPRPRPRPPVQPRP | 0.301

Sequence | shrunken log2 fold change
RRIRVRPPRLPRPRPRPCCSPRP | -0.192
RRIRLRPPRLPRPRPRPMSWPRP | 0.0708
RRIRCRPPRLPRPRPRPHCQPRP | 0.0911
RRIRIRPPRLPRPRPRPYKEPRP | 0.0131
RRIRARPPRLPRPRPRPNFCPRP | 0.24
RRIRQRPPRLPRPRPRPSEQPRP | 0.155
RRIRMRPPRLPRPRPRPTPAPRP | 2.13
RRIRKRPPRLPRPRPRPFYGPRP | -0.0306
RRIRGRPPRLPRPRPRPSFMPRP | 0.0373
RRIRGRPPRLPRPRPRPFQMPRP | 0.0308
RRIRRRPPRLPRPRPRPFPDPRP | 0.255
RRIRERPPRLPRPRPRPEMFPRP | 0.232
RRIRGRPPRLPRPRPRPHVQPRP | 0.262
RRIRCRPPRLPRPRPRPKKDPRP | -0.000499
RRIRMRPPRLPRPRPRPSSSPRP | 0.0411
RRIRFRPPRLPRPRPRPIQYPRP | -0.451
RRIRARPPRLPRPRPRPPTIPRP | 0.0349
RRIRIRPPRLPRPRPRPHPYPRP | -0.0313
RRIRPRPPRLPRPRPRPAPFPRP | 0.143
RRIRRRPPRLPRPRPRPWDKPRP | 0.0425
RRIRYRPPRLPRPRPRPVKTPRP | -0.0365
